Experimental data published in the supplement of paper PMC9732359.
± gives the uncertainty stated by the source.

Assay: protein stability index of a GFP-peptide fusion (yeast GPS) (PSI 1-4); higher = more stable; sorted into four equal gates, so the index is relative within each strain
How it was run: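 Mid-log yeast cultures in leucine-free medium, carrying a pooled plasmid library, were sorted into four equal gates by their GFP/Cherry fluorescence ratio. Each plasmid expressed Cherry along with GFP fused upstream of a tiled 17-residue yeast protein peptide. Plasmids recovered from each gate were PCR-amplified and Illumina-sequenced, with reads assigned to strains by barcodes. The protein stability index was obtained by summing each gate's read frequency weighted by its gate number.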

Sequence	protein stability index (doa10∆)	protein stability index (pdr5∆)	protein stability index (san1∆)	protein stability index (ubr1∆)
FDSLIKVQISKIPILAQ [RPN9]	2.69 ± 0.081	1.8 ± 0.056	2.59 ± 0.094	1.96 ± 0.081
GNITRGLAVGLALINYG [RPN2]	1.43 ± 0.17	1.22 ± 0.11	1.7 ± 0.15	1.51 ± 0.086
IRGIVKQIVHDSGRGAP [RPL2A]	1.76 ± 0.07	1.88 ± 0.065	2.79 ± 0.047	2.12 ± 0.07
LNLLNYQELFIQPKNSD [YML103C/NUP188]	2.57 ± 0.06	2.21 ± 0.056	2.35 ± 0.054	2.3 ± 0.045
NSGVGSAKGPEIIPLQD [MED6]	3.35 ± 0.16	3.21 ± 0.088	3.16 ± 0.071	3.23 ± 0.064
MDTIQDKLINDVTAIQT [ECM29]	3.22 ± 0.083	3.23 ± 0.1	3.2 ± 0.085	3.34 ± 0.055
PRYHSKNSFQQALQMKA [SWP82]	1.4 ± 0.033	1.82 ± 0.049	1.38 ± 0.062	1.45 ± 0.043
KADTDTLLYEQIIQRDK [SNF5]	3.23 ± 0.11	3.37 ± 0.11	3.21 ± 0.062	3.29 ± 0.064
FMVRLDSEKHIDFAPTS [RPS9A]	2.91 ± 0.071	2.87 ± 0.047	2.72 ± 0.05	2.82 ± 0.047
MYQEWEDETVKVAQLRQ [NSL1]	3.63 ± 0.085	3.47 ± 0.076	3.372 ± 0.032	3.5 ± 0.07
GSHLSETEFPPFREFLQ [ECM29]	3.12 ± 0.063	3.11 ± 0.071	3.09 ± 0.041	2.87 ± 0.058
PLIIVSDGQSRVKDIHL [RET1]	2.88 ± 0.3	3.58 ± 0.24	3.05 ± 0.2	2.79 ± 0.15
KEQYNRYRDLMISCLMN [MTR3]	2.07 ± 0.085	2.41 ± 0.053	2.4 ± 0.07	2.46 ± 0.086
NYSSLPSPYKTTVYRYS [YAR002W/NUP60]	2.04 ± 0.045	2.27 ± 0.038	1.71 ± 0.057	1.91 ± 0.034
SGLMVILYTSKIVFILD [RRI2]	1.76 ± 0.09	1.81 ± 0.049	1.44 ± 0.094	1.69 ± 0.037
LKLEKLNTNRTFAQEKL [SMC3]	2.84 ± 0.07	3.08 ± 0.069	2.83 ± 0.098	2.93 ± 0.057
TTVKPLFQNVPEQGEEP [YAR002W/NUP60]	3.08 ± 0.07	3.3 ± 0.06	3.32 ± 0.04	3.21 ± 0.052
DLQKLLKGIQEFGADWY [SWI3]	3.1 ± 0.062	3.07 ± 0.056	3.09 ± 0.043	3.22 ± 0.053
MSGGGNHVAKGLMKLGT [SMC4]	–	3.56 ± 0.3	–	–
ALRPSDIFGANAASGSN [YOR098C/NUP1]	2.67 ± 0.057	1.99 ± 0.044	2.22 ± 0.062	2.52 ± 0.059
SDSEIPPLLVYKWTQGI [PRP8]	2.3 ± 0.056	2.36 ± 0.057	2.26 ± 0.068	2.07 ± 0.074
EELDITPLFPIDRNSTI [IRR1]	2.48 ± 0.11	2.9 ± 0.14	2.9 ± 0.095	2.8 ± 0.1
ISEEETTVKPLFQNVPE [YAR002W/NUP60]	3.01 ± 0.069	3.25 ± 0.068	3.23 ± 0.043	3.01 ± 0.058
KLALAENDTNMNETLNL [SMC4]	3.15 ± 0.13	3.15 ± 0.077	3.04 ± 0.1	2.85 ± 0.089
FTGQGSQEQGMGMDLYK [FAS1]	3.28 ± 0.12	3.4 ± 0.093	3.41 ± 0.1	3.4 ± 0.088
TKMDGHARGGGAISAVA [SRP54]	–	–	3.51 ± 0.14	3.62 ± 0.26

Sequence	protein stability index (doa10∆)	protein stability index (pdr5∆)	protein stability index (san1∆)	protein stability index (ubr1∆)
QNDQWSIQMEFMLRKQD [SSN2]	2.53 ± 0.071	2.58 ± 0.088	2.4 ± 0.12	2.81 ± 0.074
RLVIKEALVERRRAFKR [RPB4]	3.13 ± 0.29	2.67 ± 0.14	2.8 ± 0.22	–
QERNKIHQYLFQEGVVV [RPS10B]	1.27 ± 0.06	1.39 ± 0.044	1.45 ± 0.09	1.45 ± 0.037
TELLDEFIAAVNNPQEE [RPN10]	3.01 ± 0.17	3.17 ± 0.14	3.08 ± 0.064	2.83 ± 0.15
LEKKFPDRHVIFLAERR [RPS7B]	2.77 ± 0.066	2.87 ± 0.058	2.91 ± 0.046	3.1 ± 0.042
KVMNNSFKLCTLLIAIR [YML103C/NUP188]	1.47 ± 0.063	1.69 ± 0.087	1.96 ± 0.15	1.63 ± 0.09
ANTPVLRKSELEYYAML [RPL30]	2.57 ± 0.096	2.99 ± 0.093	2.23 ± 0.095	2.81 ± 0.076
RAHRIGQKNEVRILRLI [SNF2]	2.26 ± 0.048	1.79 ± 0.051	2.03 ± 0.058	2.23 ± 0.044
MENEFFKVQELLHSKPS [NAS6]	2.2 ± 0.14	2.02 ± 0.082	2.68 ± 0.14	2.3 ± 0.085
KDLVIVSNLMGRNIGHP [RPB3]	3.22 ± 0.051	3.1 ± 0.05	3.18 ± 0.039	2.88 ± 0.037
SFVLNKNTIDFERFPSP [RPN4]	2.4 ± 0.059	2.66 ± 0.058	2.84 ± 0.057	2.88 ± 0.052
VDIRVGKKSSSSTKDYL [RET1]	3.42 ± 0.29	3.37 ± 0.12	3.56 ± 0.13	2.65 ± 0.18
NYESVFTYNKFLLNQNK [YIL149C/MLP2]	1.47 ± 0.045	1.92 ± 0.049	2.24 ± 0.1	2.26 ± 0.049
PKDSSSTFREWKNLVLK [YJR042W/NUP85]	3.29 ± 0.11	2.76 ± 0.12	3 ± 0.065	3.16 ± 0.088
EITHPPSTTDDENGDKN [SWI3]	3.09 ± 0.074	3.07 ± 0.072	3.19 ± 0.055	3.31 ± 0.061
SVNPSNKPIKRMLSSIL [SWP82]	2.95 ± 0.065	2.99 ± 0.044	2.93 ± 0.045	2.99 ± 0.037
FELVHHFFQIDGFNKTF [YML103C/NUP188]	2.03 ± 0.075	2.24 ± 0.091	2.42 ± 0.074	2.36 ± 0.065
VKLYGREGSSARTIKAT [RPB2]	2.47 ± 0.12	3.36 ± 0.12	3.25 ± 0.088	3.29 ± 0.19
LYGAPGTGKTLLAKAVA [RPT2]	1.77 ± 0.11	1.48 ± 0.12	–	1.58 ± 0.1
DFIKFDAGKLVYVTGGR [RPS4A]	2.22 ± 0.13	2.1 ± 0.086	2.41 ± 0.1	2.36 ± 0.094
RYDYSDEVGRRSMLTVV [YCG1]	2.02 ± 0.067	1.73 ± 0.062	2.91 ± 0.094	1.97 ± 0.05
WLIEGKLYVDAVHSIIA [YDL116W/NUP84]	1.2 ± 0.18	1.32 ± 0.15	1.07 ± 0.28	1.1 ± 0.095
SEFDSRVKAMEVDEKPT [RPT5]	2.77 ± 0.11	2.76 ± 0.089	3.08 ± 0.14	2.97 ± 0.062
SDMQHIERLLKDLVTEN [PRE4]	1.63 ± 0.14	2.61 ± 0.13	2.31 ± 0.17	2.97 ± 0.15
YKPGSITLENITRLCQT [MED1]	2.14 ± 0.044	2.23 ± 0.041	1.79 ± 0.046	1.99 ± 0.032
DDVLQTIITDCAFLLTK [YJL039C/NUP192]	1.76 ± 0.057	2.08 ± 0.062	1.79 ± 0.098	2.34 ± 0.047
